The DeepSol protein solubility set

experiment: soluble on expression in E. coli; label from the status in PepcDB or PDB records

Sequence	soluble on expression in E. coli
MGSDKIHHHHHHMSTFLESLRDILSAGESIAMATIANHSGSTPRGDGAQMVIRPDGSILGTIGGGLVEARCIEAGRDLLQRPPGSALFCAFALDNTTAAEAAMVCGGHLTVIIEHAGACHDNVNGCHTGEQTGCSAGHGKGLADILLHACDRVADGLSASFGVEYVWDSPSGQDGANALDKADISGRATTRQTFRPMRAAVHTTGEDSDGQRLSGASTGLALSESGCRLDVMLVPPPRLVIFGAGHVAVPTAHFGHAVGFSVTVIDDRPDFATPERFPDAHLRIPPSFAEAFDGLHVTPDTYLVIMTRGHLHDGEILEQALKTPARYIGMIGSRRKRDALYAELQEQGLDDATLARCHCPIGLDIQAQTPEEIGISIMAELVMHRASA	not soluble
MIELEGVPELVDPVMVAAFEGWNDAGDAASTAVAHLDREWKGEVFAALDAEDYYDFQVNRPTVFMEDGVRKITWPTTRLSVVRVGGDKPRDLVLVRGIEPSMRWRSFCNELLGFAHELGVELVVVLGALLGDTPHTRPVPISGTTSDADLARRMDLEETKYEGPTGIVGILQEACTHAGVPAVSLWAAVPHYVSQPPNPKATLALLNRLEDLIGVRVPLGELPEDARAWQVGVDQLAAEDTEVAEYVQSLEEARDTA	soluble
MAKRGRPCGFDREQALRRALDVFWEAGYEGVTMAALKEAMGGICAPSMYAAYGSKEALFRSAVELYLSQECQLSKGAFALPTARESIAALLESAAVSYTTEGKPRGCLVDLSTTNFSPANKGVEDYLRDHRRRAARLLRERFARGVADGDVPAGADLDALTSFYSSVLQGLSIQARDGASRQQLLAIGRCAMAAWDSLLAVEAA	not soluble
NGFQKEIRGQLLNVAPHAEIGYIDNTDTDWRNLLRFTENRKGILAAAPYVSNQALLANAGEIRGVQMRGILPSEERKVVEYGDKMPAGKFEDLIPGEFDIILGVGLAEALGAEVGNKVTVITPEGNVTPAGVVPRLKQFTVVGLVKTGVYEVDNSLAMTHIQDARVLYRLDKEVAGLRLKLADPQNAPALTATLIPEAQRDAVWVRDWTYSNRSYFEAVELEKR	soluble
MAHHHHHHMSSTVTGQAIPKLFPKAFHSWVGTGRIFNFLAPYEQNRVIAYLNSIYNTAPLFKWSLSIVPLYGIVSGYPPVEKIDFNSSAALCATGMVWFVYALLIQPQNSGSRSLALVNICLATVNGYNCYRSAQHKRRQAVNANRIE	not soluble
MLEVKELVKTFGDFKAVDHVSFTIPDGKILGLIGQNGAGKTTTFRLILNFLTQDSGSVLWNGQPLNEKEYNIIGYLPEERGLYPKITIEDQLIYFASLRGKTKKEIEPKIDFWMEKFQVKGKKTDKVKSLSKGNQQKVQLIATLIHEPKLIILDEPFSGLDPVNAELLKDGIIELKNQGSCVIFSSHNMDNVEKICDHLVMLKNGRMVLDGQVHEIRQQFGRTKLFLESPLSVEEVAATAGVKEAHLRQDGVLEATLENAEVGKVLFDKATANGYIPMFNQQPPTLEEIFKMKVGGQDE	not soluble
MSLRIRVPATTANLGPGFDSCGLALTLYLTLDIGAEADSWYIEHNIGGGIPHDETNVIIETALNLAPNLTPHHLVMTCDIPPARGLGSSSAAVVAGIELANTLAELNLSKEEKVRIAAEIEGHPDNVAPAVLGNWVVGAKLDGEDFYVRHLFPDCALIAFIPKAELLTSESRGVLPDTLPFKEAVQASSIANVMIAAILRNDMTLAGEMMERDLWHEKYRSQLVPHLAQIRDVAKNQGAYAACLSGAGPTVLVFAPRNLANKLQTSLQTLEIDADVLLLDVEGSGAEVFREGHHHHHH	soluble
MYYAIPTVVVSECLGFSACRYNGDIIRNSFVSRLGEFARLVPVCPEVAIGLGVPRETVRLVKRGEERRLVQSSTNRDWTREMNEFATSFFGQVGEVDGFILKGRSPTCGIKDVRVYDDEESGMVVEKGVGLFAEHVFRRFPNAAIEEEGRLTNAAIREHFLTKVFALALFREVKAKRSMKALVQFHSEHKYLFMAYSQTWLKQLGRLVANRDRLPVEQVLEAYGQGLHALFARAPQRRSHVNVCQHLMGYFKKEMSAKEKQYVLELLAQYRAQQLPLSSVASVLKSWAIREENDYLLQQRYFAPYPPALLDVRDSGKGREKAV	not soluble
EFSMEDLIPLVNRLQDAFSAIGQNADLDLPQIAVVGGQSAGKSSVLENFVGRDFLPRGSGIVTRRPLVLQLVNATTEYAEFLHCKGKKFTDFEEVRLEIEAETDRVTGTNKGISPVPINLRVYSPHVLNLTLVDLPGMTKVPVGDQPPDIEFQIRDMLMQFVTKENCLILAVSPANSDLANSDALKVAKEVDPQGQRTIGVITKLDLMDEGTDARDVLENKLLPLRRGYIGVVNRSQKDIDGKKDITAALAAERKFFLSHPSYRHLADRMGTPYLQKVLNQQLTNHIRDTLPGLRNKLQSQLLSIEKEVEEYKNFRPDKHGTDSRVDEMLRMYHALKEALSIIGNIN	soluble
MGSDKIHHHHHHMEDKLISRYDILVNRYKELVSEKLSRKDFIEYNEILFSAHSCAIEGNSFSVDETRTLKEKGLGMIPKGKTLLEAFEILDHFQAYEYLLKNLDRPLTEELLKETHRLLTEHTLSYKTQYDEIPSNPGEYTTVDMCAGDTIFGDHEQLIKQVPRLLQSTQQVLDSGKIHPMIIAARFHGFYEYLHPFRDGNGRLGRLMSNFILLKKEQPLLIIPGSQREEYITALKYIKKERTDEFLIDFFFRTSIKRMEQEIEEKKNLTENFIRGMEFVRNVKSSNDDISEI	not soluble
MGSDKIHHHHHHMTAPMPNLGAVFDTVDPAMAHLAARIDRLILAIDAALTRQLNAILAASEFRALEARWRALDRVLTHAGRDGQVIVRILNVSWRALSRDLDRAVEFDQSHLHKLVYDGEFGMPGGLPFGVLVADYEVSATTDRARGDQVETLSRLAAVAAAAFCPIMLGAAPDLLGVDDFDQIAPYTDLTDAEGRRADPPMIRWRALRDRDDARFIGLVAPRIVLRGPRTRLSPTRADGFTFDEDPHRILSVAGSFAFATTVIAAFRASGWFAAIRGAAQDTDGGGRVAGWPGHDLGTDGHNLSRQSPATLRLTAAQEDALIARGIVPLSSLPLTDEAVFNANPSLHRPTRYDSPVASENARISAMLQYVLCTSRFAHYLKVMMREAIGSVAPPDVIQGHLDDWLRGYCLGNEDAGAELKAEYPLRNAGVEVTPIPGKPGAFAARIHLQPHFQLDDISTSFHLVSEAPAGLERTSA	not soluble
MIQLGGYKPRLSLHNSLFRALVSKQGGILNDQLKQAEFIFHNVVTTGLEVQKDIYSGLIWLHSCQDEVDIGRINSLREEMKKAGFQESKEVVVSLLRAYAKEGGVEEVERTWLELLDLDCGIPSQAFVYKIEAYSKVGDFAKAMEIFREMEKHIGGATMSGYHKIIEVLCKVQQVELVETLMKEFEESGKKPLLPSFIEIAKMYFDLGLHEKLEMAFVQCLEKCQPSQPIYNIYLDSLTKIGNLEKAGDVFNEMKNNGTINVSARSCNSLLKGYLDCGKQVQAERIYDLMRMKKYEIEPPLMEKLDYILSLKKKEVKKRPFSMKLSKDQREVLVGLLLGGLQIESDKEKKSHMIKFEFRENSQAHLVLKQNIHDQFREWLHPLSNFQEDIIPFEFYSVPHSYFGFYAEHYWPKGQPEIPKLIHRWLSPHSLAYWYMYSGVKTSSGDIILRLKGSLEGVEKVVKALQAKSMECRVKKKGKVFWIGLQGTNSALFWKLIEPHVLENLKEHLKPASESLDNVKEAEEQSINFKSNSDHSDDCVNSEAHFY	not soluble
MSLTNNLTTKASLVSSAFSPVLVVGKKKELRQPVKIKAVNWHHKKRPVELQVGNFPPERYVLSPGINNIETSIPEVTAPCELPIILKEQGKTVSKINEKATPVKKWTVYLVQHTHTDIGYTKPQTEILSEHLRYIDYAIEYCEQTKDYTNDAKFRWTCESAWAVDEYLKNRPEEQVNKLKKYIAEGQIEVASMYFNMSEIVDENSFKTFLQPVKEFRKHGIPSALAMQNDVNGIAWCLADYLPDLGIKYLWMGEHHYKSQVPFNMPTVFQWESPSGKPILTYRADHYNTGNFWGIEQGDIQKTEPKLLHYLSELERKHYPFDAVGVQYSGYFTDNSPPSIIECKLIREWNEKYAYPKLRSATASEFMDYVTERYGDKIPAYRAEGHHHHHH	soluble
EITHRTKTRPVKVGPLTIGGNNEVVIQSMTTTKTHDVEATVAEINRLAEAGCQIVRVACPDERAANAIADIKKRISIPLVVDIHFDYKLALKAIEGGADKIRINPGNIGRREKVEAVVKAAKDKGIPI	not soluble
MDRRTFLKSASMKGTAIVTASAVGTEMLHAAESIGASDVASGKRNAPKAKRLPEDLQELVKDSSLLRKPDNLTVACYTFPNYHASALHDKIYGPGWTEYNLVRSARPWFQGHAQPRGPLLGEMDESKPGTWEKYNELCKQSGIDVLIWDWYWYNNEPCLHEALENGFLRASNRNDVKFACMWTNHPWYVLYPTLLPNGYKAYPPSFAPADGSLKECWQSLSYIISRYCHLENYWRIDDKPVVCIWDPNRLEKNIGVDGVKQLFAELTEFARKLGHKGLHFHSSGFYSPNSKEVGYNTAGSYNPFTWVADNYQPKNIELPDYGVAAADVAFKLWPKHHDDFAIPYLPSLSPGWDSTPRYIPPVSRPDQPNRDAWPNCVILDNENPASFKALVQSAFAYLNKHKDVPPILTIACFNEWTEGHYLLPDNRFGYGMLDALAEAVGKSDNHQIHGFFLEHHHHHH	not soluble
MSLKADPRGTGSRTPGTATGGKTVPTVPPAPTADRRTTVDVTALLERGRTLATPVLRAAVDRLAPPMDTVAAYHFGWIDAQGNPADGDGGKAVRPALAVLSAEVTGAAPEVGVPGAVAVELVHNFSLLHDDLMDGDEQRRHRDTVWKVHGPAQAILVGDALFALANEVLLELGTVEAGRATRRLTKASRSLIDGQAQDISYEHRDRVSVEECLEMEGNKTGALLACASSIGAVLGGADERTADTLEKYGYHLGLAFQAVDDLLGIWGDPDATGKQTWSDLRQRKKSLPVVAALAAGGAASERLGEILTADAKASDFANFSEEEFAARAALIEEAGGREWTADEARRQHTIAIEALDAVDMPDRVRDRFTALADFVVVRKREGHHHHHH	soluble
MLKRLISIPTVAPQGDHYGEAAELLARELESLGFETVVERVPSEYQREKCRHASDNPRFIVYGRRGEGPALHFNGHYDVVPGGPGWSVTEPFKPVVKDGKLYGRGAIDMKGGIAAALGAFKALHLSGAWPQGLRVEAAFVPDEEIGGECGTGYLVNGMGVTPEYVVLPEPSGLEKPWHGHRGILWMKVRVKGRTAHASTPWHGRNAFLLASAIALDLQQALASMYAGRRSRHRIEPEESAKPTVSLGGEAGVTGGGKTNQVPGEFYFTVDRRLIPEETVSQARDELLGVLTWLSVKHGAEVEAEEVISAEPAINEPGELYEALREAASQSGRSIGEPVVCPGGLDMWYYTVKGSKALAYGPRGELAHAPDEHIDLGELRFLVETFARLPITLAVALQRRT	soluble
MSLTPRDHTLILIDYQSQMAFATHSIDIPTLRNNAGLVASAAAGFGVSAILTTVAEKSFSGPMFDEVTAPFPDLRMLDRTSMNTWEDAAVIDRVNQIGKGRIVLAGLWTSVCIVGPALSALDQGFEVYVIADACGDISAEAHERAMQRMVQAGARPITSLQYLLELQRDWARTDTYELTTGIAAKLGGGYGLGIRYAKTMFGGHEGHHHHHH	soluble
MKTRDRILECSLLLFNEQGEPNVSTLEIANELGISPGNLYYHFHGKEPLVMALFERFQAELAPLLDPPEEVRLGAEDYWLFLHLIVERLAHYRFLFQDLSNLTGRLPRLARGIRTWLGALKRTLATLLARLKADRQLRSDAPALGQLVEQITLTLLFSLDYQRVLGSKGEVRTVVYQIMMLVAPHLRSEAQRSAESLAQRYLGPE	not soluble
MSPPDLEDEPFMENQDVAGENDLFVLDGRQDPPNLPQNHLEEVVGEIVENLERWHFAEILADGAEIHEDIIEDVGGDEVEEEEVDIDWVSPLSKEYSKPFSKS	not soluble
